Paper PMC10397247

What was measured:
4H3638-bH = target: T1, 4H3638-bH; experiment: two-hybrid library CCNG1;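 further: natural log of median RNA to DNA barcode read ratio; higher means stronger binding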
T1 chain: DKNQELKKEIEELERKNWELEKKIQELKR

4H3817-bH = target: T2, 4H3817-bH; experiment: two-hybrid library CCNG1;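 further: natural log of median RNA to DNA barcode read ratio; higher means stronger binding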
T2 chain: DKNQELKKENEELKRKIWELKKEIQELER

4H3974-bH = target: T3, 4H3974-bH; experiment: two-hybrid library CCNG1;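 further: natural log of median RNA to DNA barcode read ratio; higher means stronger binding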
T3 chain: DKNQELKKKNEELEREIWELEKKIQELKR

4H570-bH = target: T4, 4H570-bH; experiment: two-hybrid library CCNG1;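 further: natural log of median RNA to DNA barcode read ratio; higher means stronger binding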
T4 chain: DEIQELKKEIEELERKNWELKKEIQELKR

4H584-bH = target: T5, 4H584-bH; experiment: two-hybrid library CCNG1
T5 chain: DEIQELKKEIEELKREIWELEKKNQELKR

4H619-bH = target: T6, 4H619-bH; experiment: two-hybrid library CCNG1
T6 chain: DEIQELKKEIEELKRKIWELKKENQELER

4H850-bH = target: T7, 4H850-bH; experiment: two-hybrid library CCNG1
T7 chain: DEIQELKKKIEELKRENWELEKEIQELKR

4H906-bH = target: T8, 4H906-bH; experiment: two-hybrid library CCNG1
T8 chain: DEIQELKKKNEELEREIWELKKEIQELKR

4H2283-AA = target: T9, 4H2283-AA; experiment: two-hybrid library CCmax
T9 chain: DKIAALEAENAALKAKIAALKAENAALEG

4H2713-AA = target: T10, 4H2713-AA; experiment: two-hybrid library CCmax; details: mean of both orientations
T10 chain: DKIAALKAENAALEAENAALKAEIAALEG

4H2742-AA = target: T11, 4H2742-AA; experiment: two-hybrid library CCmax; details: mean of both orientations
T11 chain: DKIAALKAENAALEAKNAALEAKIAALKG

4H2948-AA = target: T12, 4H2948-AA; experiment: two-hybrid library CCmax; details: mean of both orientations
T12 chain: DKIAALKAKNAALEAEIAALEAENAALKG

4H2991-AA = target: T13, 4H2991-AA; experiment: two-hybrid library CCmax; details: mean of both orientations
T13 chain: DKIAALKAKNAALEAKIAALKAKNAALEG

4H3029-AA = target: T14, 4H3029-AA; experiment: two-hybrid library CCmax; details: mean of both orientations
T14 chain: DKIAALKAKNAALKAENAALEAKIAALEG

4H3066-AA = target: T15, 4H3066-AA; experiment: two-hybrid library CCmax; details: mean of both orientations
T15 chain: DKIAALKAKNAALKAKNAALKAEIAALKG

4H3102-AA = target: T16, 4H3102-AA; experiment: two-hybrid library CCmax; details: mean of both orientations
T16 chain: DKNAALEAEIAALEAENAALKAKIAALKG

4H3121-AA = target: T17, 4H3121-AA; experiment: two-hybrid library CCmax; details: mean of both orientations
T17 chain: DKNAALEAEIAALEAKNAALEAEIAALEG

4H3417-AA = target: T18, 4H3417-AA; experiment: two-hybrid library CCmax; details: mean of both orientations
T18 chain: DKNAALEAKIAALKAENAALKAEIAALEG

4H3446-AA = target: T19, 4H3446-AA; experiment: two-hybrid library CCmax; details: mean of both orientations
T19 chain: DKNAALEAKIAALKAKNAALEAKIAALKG

4H3591-AA = target: T20, 4H3591-AA; experiment: two-hybrid library CCmax; details: mean of both orientations
T20 chain: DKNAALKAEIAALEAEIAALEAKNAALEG

4H3628-AA = target: T21, 4H3628-AA; experiment: two-hybrid library CCmax; details: mean of both orientations
T21 chain: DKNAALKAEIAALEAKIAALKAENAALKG

4H3666-AA = target: T22, 4H3666-AA; experiment: two-hybrid library CCmax; details: mean of both orientations
T22 chain: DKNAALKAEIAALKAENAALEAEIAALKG

4H3709-AA = target: T23, 4H3709-AA; experiment: two-hybrid library CCmax; details: mean of both orientations
T23 chain: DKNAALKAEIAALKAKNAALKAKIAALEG

4H391-AA = target: T24, 4H391-AA; experiment: two-hybrid library CCmax; details: mean of both orientations
T24 chain: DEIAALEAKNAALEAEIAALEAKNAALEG

4H3920-AA = target: T25, 4H3920-AA; experiment: two-hybrid library CCmax; details: mean of both orientations
T25 chain: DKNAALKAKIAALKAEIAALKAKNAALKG

4H3939-AA = target: T26, 4H3939-AA; experiment: two-hybrid library CCmax; details: mean of both orientations
T26 chain: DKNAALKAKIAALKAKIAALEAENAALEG

4H428-AA = target: T27, 4H428-AA; experiment: two-hybrid library CCmax; details: mean of both orientations
T27 chain: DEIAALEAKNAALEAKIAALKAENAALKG

4H478-AA = target: T28, 4H478-AA; experiment: two-hybrid library CCmax; details: mean of both orientations
T28 chain: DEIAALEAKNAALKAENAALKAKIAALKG

4H497-AA = target: T29, 4H497-AA; experiment: two-hybrid library CCmax; details: mean of both orientations
T29 chain: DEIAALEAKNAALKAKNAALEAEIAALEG

4H656-AA = target: T30, 4H656-AA; experiment: two-hybrid library CCmax; details: mean of both orientations
T30 chain: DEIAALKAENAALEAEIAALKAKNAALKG

4H675-AA = target: T31, 4H675-AA; experiment: two-hybrid library CCmax; details: mean of both orientations
T31 chain: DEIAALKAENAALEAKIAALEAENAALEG

4H971-AA = target: T32, 4H971-AA; experiment: two-hybrid library CCmax; details: mean of both orientations
T32 chain: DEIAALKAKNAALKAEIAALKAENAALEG

P8SHb = target: T33, P8SHb; experiment: two-hybrid library CCNG1
T33 chain: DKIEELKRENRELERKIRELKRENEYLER

P9SHb = target: T34, P9SHb; experiment: two-hybrid library CCNG1
T34 chain: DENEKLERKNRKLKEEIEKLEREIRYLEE

O6 = target: T35, O6; experiment: two-hybrid library CC0; details: mean of both orientations
T35 chain: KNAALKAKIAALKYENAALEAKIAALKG

O7 = target: T36, O7; experiment: two-hybrid library CC0; details: mean of both orientations
T36 chain: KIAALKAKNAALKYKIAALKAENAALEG

O8 = target: T37, O8; experiment: two-hybrid library CC0; details: mean of both orientations
T37 chain: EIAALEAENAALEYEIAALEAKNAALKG

O9 = target: T38, O9; experiment: two-hybrid library CC0; details: mean of both orientations
T38 chain: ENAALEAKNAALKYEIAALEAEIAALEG

B1: 4H3638-bH (peptide)
chain: DKNQELKKEIEELERKNWELEKKIQELKR
B1 showed an interaction score (4H3638-bH) of -1.34, an interaction score (4H3817-bH) of -0.0824 and an interaction score (4H3974-bH) of -0.916. The interaction score (4H570-bH) was -0.4, the interaction score (4H584-bH) was -0.722 and the interaction score (4H619-bH) was -1.47. It also gave an interaction score (4H850-bH) of 1.04 and an interaction score (4H906-bH) of -0.762.

B2: 4H2283-AA (peptide)
chain: DKIAALEAENAALKAKIAALKAENAALEG
In the case of B2, the interaction score (4H2283-AA) is reported as 1.25, the interaction score (4H2713-AA) is reported as -1.19 and the interaction score (4H2742-AA) is reported as -1.21. It also gave an interaction score (4H2948-AA) of 0.785, an interaction score (4H2991-AA) of -1.95 and an interaction score (4H3029-AA) of -1.74. For the same binder, the interaction score (4H3066-AA) was -1.63, the interaction score (4H3102-AA) was 0.17 and the interaction score (4H3121-AA) was -0.934. It also gave an interaction score (4H3417-AA) of 1.63, an interaction score (4H3446-AA) of -1.15 and an interaction score (4H3591-AA) of -1.46. For the same binder, the interaction score (4H3628-AA) was -1.32, the interaction score (4H3666-AA) was -0.868 and the interaction score (4H3709-AA) was -1.11. The interaction score (4H391-AA) was -0.595, the interaction score (4H3920-AA) was -1.54 and the interaction score (4H3939-AA) was -1.94. It also gave an interaction score (4H428-AA) of -0.691, an interaction score (4H478-AA) of -1.52 and an interaction score (4H497-AA) of -1.45. It also gave an interaction score (4H656-AA) of 1.84, an interaction score (4H675-AA) of -0.967 and an interaction score (4H971-AA) of -0.878.

B3: P8SHb (peptide)
chain: DKIEELKRENRELERKIRELKRENEYLER
With B3 the interaction score (P8SHb) was -0.644 and the interaction score (P9SHb) was 0.191.

B4: O6 (peptide)
chain: KNAALKAKIAALKYENAALEAKIAALKG
With B4 the interaction score (O6) was -2.7, the interaction score (O7) was -2.72 and the interaction score (O8) was -1.78. For the same binder, the interaction score (O9) was -2.41.
